Consider 21 molecules from patent US20160052996A1 (NEURIMMUNE, published 2016).

In assay [1] the target is T1, JCV VP1 VLP (JC virus (JCV), Mad-1 strain, UniProt P03089 1-354).
T1 construct: also called JCV VP1 VLPs; JCV VP1 (coating with reassociation buffer)
As to the kind of experiment: direct ELISA, plate coated with antigen at 5 µg/ml in reassociation buffer (VLP); EC50 by non-linear regression (GraphPad Prism).

Assay [2] deals with T2, BSA (Sigma-Aldrich) (bovine, UniProt P02769 25-607).
T2 construct: also called bovine serum albumin
T2 sequence (P02769 25-607 limits assumed): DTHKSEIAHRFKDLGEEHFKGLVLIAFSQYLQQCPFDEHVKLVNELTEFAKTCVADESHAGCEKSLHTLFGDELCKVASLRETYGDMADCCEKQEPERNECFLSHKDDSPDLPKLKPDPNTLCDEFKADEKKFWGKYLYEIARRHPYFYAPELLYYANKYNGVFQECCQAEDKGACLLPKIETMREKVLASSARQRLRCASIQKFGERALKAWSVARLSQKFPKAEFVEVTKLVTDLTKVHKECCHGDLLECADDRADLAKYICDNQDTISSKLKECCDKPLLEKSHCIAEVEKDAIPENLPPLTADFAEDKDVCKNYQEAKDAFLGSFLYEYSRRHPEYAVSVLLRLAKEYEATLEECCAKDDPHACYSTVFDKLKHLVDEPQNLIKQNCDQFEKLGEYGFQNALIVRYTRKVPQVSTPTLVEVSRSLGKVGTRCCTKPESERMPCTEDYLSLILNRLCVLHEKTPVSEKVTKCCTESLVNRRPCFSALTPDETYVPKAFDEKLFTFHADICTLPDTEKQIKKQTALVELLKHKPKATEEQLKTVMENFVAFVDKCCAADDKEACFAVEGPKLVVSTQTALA
As to the kind of experiment: direct ELISA.

In assay [3] the target is T1, JCV VP1 VLP. The assay can be described thus: direct ELISA.

B1: NI-307.98H1 (antibody, V domains shown)
VH: QLQLQESGPGLVKPSQTLSLTCAVSGASISSGTYYWGWIRQHPGKGLEWIGYIYPSGSTYYNPSLKSRVIISLDTSKSQFSLNLSSVTAADTAVYYCARDYYDSSGHMGGYYHYAMDVWGQGTTVTVSS
VL: DIQLTQSPSSLSASVGDRVTITCRASQSISSHLNWYQQKPGKVPKLLIYAASTLQSGVPSRFSGSGSGTDFTLAISSLQPADFATYYCQQSYSTPRTFGQGTKVDIK
As to B1, the EC50 in assay [1] is 0.086 nM.

B2: NI-307.45E10 (antibody, V domains shown)
VH: EVQLVESGGGLVQPGGSLRLSCAASGFSFRFYAMNWVRQAPGKGLEYVSGISGGGGTTYYADSVKGRFTISRDNSKNTLYLQMKSLRAEDTAIYYCAKDQSYCSGAGCHPYYLDYWGQGTLVTVSS
VL: SYVLTQPPSVSVAPGQTARITCGGNNIGSKSVHWYQQKPGQAPVVVVYDDSGRPSGMPERFSGSNSGNTATLTISRVEAGDEADYYCQVWDSSSDHLYVFGTGTKVTVL
Turning to B2, the EC50 in assay [1] came to 0.024 nM.

B3: NI-307.105C7 (antibody, V domains shown)
VH: EVQLVESGGGLVQPGGSLRLSCAASGFSFGFYAMNWVRQAPGKGLEYVSGVSGGGGSTYYADSVKGRFTISRDNSKNTLYLQMKSLRAEDTAIYYCAKDQSYCSGGSCHPYYLDYWGQGTLVTVSS
VL: SYVLTQPPSVSVAPGQTARITCGGNNIGSKSVHWYQQKPGQAPVVVVYDDSGRPSGIPERFSGSNSGNTATLTISRVEAGDEADYYCQVWDSSSDHPYVFGTGTKVTVL
Consider B3, for which a half-maximal effect in assay [1] (EC50) was put at 0.04 nM.

B4: NI-307.20F5 (antibody, V domains shown)
VH: EVQLVESGGGVVQPGTSLRLSCAASGFSFNKYGVHWVRQAPGKGLEWVANIWYDGTNPFYADFVKGRFVISRDTSKNTIYLQMNRLRAEDTAVYYCARDAFCGGDCYGGLLHGLDVWGQGTTVTVSS
VL: DVVMTQSPLSLPVTPGEPASISCRSSQSLLHSNGLNYLDWYLQKPGQSPQLLIYLGSNRAPGVPDRFSGSGSGTDFTLKISRVEAEDVGVYYCLQALQTPAFGQGTKVEIK
For B4, the binding result in assay [2] is listed as “no binding”.

B5: NI-307.57D4 (antibody, V domains shown)
VH: EVQLVESGGGLVQPGRSLRLSCAASGFTFDHYAMHWVRQVPGRGLEWVSGVTWNSGIIGYADSVKGRFTISRDNAKNSLYLQMTSLRAEDTALYYCAKGTNDFVSYGLDVWGQGTTVTVSS
VL: QSVLTQPPSVSGAPGQRVSISCTGTSSNLGAGFDVHWYQQIPRKAPELLIYGNSIRPSGVPDRFSGSKSGTSASLAITGLQAEDEADYYCQSYDSRLSGSVFGGGTKLTVL
Regarding B5, in assay [1], the response was half-maximal at 0.053 nM (EC50).

B6: NI-307.53B11 (antibody, V domains shown)
VH: EVQLVQSGAEVKKPGESLKISCKGSGYSFTSYWIGWVRQMPGKGLEWMGIIYPGDSDTRYSPSFQGQVTISADKSITTAYLQWSSLKASDTALYYCARRGSGSFSNYDFWGQGTLVTVSS
VL: QSALTQPRSVSGSPGQSVTISCTGTSSDVGAYNYVSWYQQHPVKAPKLMIYDVSKRPSGVPDRFSGSRSGNTASLTISGLQADDEADYYCCSYAGTYTVLFGGGTKLTVL
In assay [1], B6 displayed an EC50 of 0.064 nM.

B7: NI-307.27C2 (antibody, V domains shown)
VH: EVQLVESGGGLVKPGGSLRLSCAASGFTFSSYTMNWVRQAPGKGLQWVSSISSSSTYMYYGDSVKGRFTISRDNARNSLYLQMNSLRVEDTAVYYCARYAHDWNVDYWGQGTLVTVSS
VL: QSVLTQPPSASGTPGQRVTISCSGGSSNIGSNPVNWFQQFPGTAPKLLIYANTQRPSGVPDRFSGSKSGTSVSLAISGLQSEDEGDYHCAAWDDSLKGWVFGGGTKLTVL
In assay [1], B7 gave an EC50 of 0.052 nM.

B8: NI-307.56A8 (antibody, V domains shown)
VH: EVQLVESGGGLVKPGGSLRLSCAASGFTFSSYRMNWVRQAPGKGLEWVSSISSSSSYIYYGDSVKGRFTISRDNAKNSLYLQMSSLRAEDTAVYYCARYAHDWNIDYWGQGTLVTVSS
VL: not shown
B8 came in with an EC50 in assay [1] of 0.041 nM.

B9: NI-307.43E8 (antibody, V domains shown)
VH: EVQLVESGGDVVQPGRSLRLSCAASGFAFSIYAMNWVRQAPGKGLEWVALISTSGTEHYADSVKGRFTISRDNSKNTLFLQINSLRVEDTAVYYCARDLDSTGYYENNYWGQGTLVTVSS
VL: DVVMTQSPLSSPVSLGQPASISCRSSHSLVHSNGDTYLSWLQQRPGQPPRLLIYKISNRFSGVPDRFSGSGAGTDFTLKISRVEAEDVGVYFCMQATSFPRTFGQGTKVEIK
For B9, in assay [1], the midpoint of the response, the EC50, lay at 0.64 nM.

B10: NI-307.6A2 (antibody, V domains shown)
VH: QVQLQESGPGLVKPSETLSLTCAVSGGSVSSSYWYSWVRQLPGKGLEWIGEIFHTGDTNYNPSLESRVTISIDTSKNQLSLDVTSATAADTAVYYCARDYCTDSGCDSDALDVWGHGTMVTVSS
VL: QSALTQPASVSGSPGQSITISCTGTTKDVGNYNLVSWYQQHPGKAPRLVIYEVSERPSGVSNRFSGSKSGNTASLTISGLQAEDEADYHCCSYAGSGTSVFGGGTKVTVL
Molecule B10 returned an EC50 in assay [3] of 1.39 nM. Besides, in assay [2], the binding result is on record as “no binding”.

B11: NI-307.47B11 (antibody, V domains shown)
VH: EVQLVESGGGLVKPGGSLRLSCAASGFTFSDYYMNWIRQAPGKGLEWLSCISSSGNTIYYADSVKGRFTISRDNAKNSLYLQMNSLRAEDTAVYYCARDLDKAATGRPYFDYWGQGTLVTVSS
VL: not shown
Consider B11, for which, in assay [1], a half-maximal response (EC50) required 0.048 nM.

B12: NI-307.24F3 (antibody, V domains shown)
VH: QVQLQESGGGVVQPGRSLRLSCAASGFSFNRYGMHWVRQAPGKGLEWLAVISNDGVNTHYADSVKGRFTISRDNSKSTLYLQASSLRVEDTAVYYCAGYYYGSGTSLFFYWGQGTLVTVSS
VL: EIVLTQSPDSLAVSLGERATINCKSSQTVLYSSNNQNYLAWYQQKPGQPPKLLLYWASTRESGVPDRFSGSGSGTDFTLTISSLQPEDVAVYYCQQYYTAPYTFGQGTKVEIK
For B12, it took 6.95 nM to reach a half-maximal effect in assay [3] (EC50).

B13: NI-307.72F10 (antibody, V domains shown)
VH: EVQLVESGGGVVQPGRSLRLSCATSGFTFDDYAMHWVRQAPGKGLEWVSGLTWSSSGVGYADSVKGRFTISRDNAKNSLYLQMNSLRAEDTALYYCAKGSGEWLRLGQDYWGQGTLVTVSS
VL: QSVLTQPPSVSGTPGQRVTISCTGSSSNIGAGYDVHWYQQLPGTAPKLLIYDNSNRPSGVPDRFSGSKSGTSASLAITGLQAEDEAHYYCQSFDSSLSGSVFGGGTKLAVL
In assay [1], B13 showed an EC50 of 0.031 nM.

B14: NI-307.105A6 (antibody, V domains shown)
VH: EVQLVESGGGLVQPGRSLRLSCAASGFTFDDYAMHWVRQAPGKGLEWVSGITWNSGSIGYADSVKGRFTISRDNAKNSLYLQMNSLSAEDTALYYCAKGARDYLSYGMDVWGQGTTVTVSS
VL: QSVVTQPPSVSGAPGQRVTISCTGSSSNIGAGYDVHWYQQLPGTAPKLLIFSNTIRPSGVPDRFSGSKSGTSASLAITGLQAEDEANYYCQSYDSSLSGSVFGGGTKLTVL
B14: in assay [1], the half-maximal effective concentration (EC50) came to 0.069 nM.

B15: NI-307.27C11 (antibody, V domains shown)
VH: QVQLQESGPGLVKPSGTLSLTCAVSGDSISSSNWWSWVRQPPGKGLEWIGEIYHSGGTKYNPSLKSRVTISVDKSKNHFSLKLRSVTAADTAVYYCARNRWFDNNRGGYYYYGMDVWGQGTTVTVSS
VL: DIQMTQSPSSLSASVGDRVTITCRASQGISSYLNWYQQKPGKAPKLLISATSDLQSGVPSRFSGSGSGTDFTLTISSLQPEDFATYYCQQSYSTPYTFGQGTKLEIK
B15: a half-maximal response in assay [1] (EC50) required 0.042 nM.

B16: NI-307.50H4 (antibody, V domains shown)
VH: QVQLQESGPGLVKPSGTLSLTCAVSGDSISSSNWWSWVRQPPGKRLEWIGEIYHSGGTKYNPSLKSRVTISVDKSKNHFSLKLRSVTAADTAVYYCARNRWFDNNRGGYYYYGMDVWGQGTMVTVSS
VL: DIQMTQSPSSLSASVGDRVTITCRAGQGISTYLNWYQQKPGKAPNLLIYATSDLQSGVPSRFSGSGSGTDFTLTISSLQPEDFATYYCQQSYNNPYTFGQGTKVEIK
On to B16, for which, in assay [1], a half-maximal effect (EC50) was put at 0.055 nM.

B17: NI-307.59A7 (antibody, V domains shown)
VH: EVQLVESGGGLVQPGGSLRLSCAASGFTFSSYEMNWVRQAPGKGLEWVSYISSSGTNIYHADSVKGRFTISRDNAKNSLYLQMNSLRAEDTAVYYCARDGPSPRGHNYGHDYWGQGTLVTVSS
VL: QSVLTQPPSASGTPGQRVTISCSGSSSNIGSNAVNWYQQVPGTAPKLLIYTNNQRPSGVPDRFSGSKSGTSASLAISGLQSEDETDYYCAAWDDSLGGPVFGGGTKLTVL
Take B17: in assay [1], the midpoint of the response, the EC50, lay at 0.066 nM.

B18: NI-307.3G4 (antibody, V domains shown)
VH: QVQLVQSGAELKKPGAAVKVSCQASGYNFLSYGINWVRQIPGQGLQWLGWISTYDGTMNYDQKPDNRVTVTTDTSSSTVYLELRGLRSDDTGVYYCVRDRCAGAGCSHSLGYWGQGTLVTVSS
VL: DIQMTQSPSALSASVGDRVTISCRASQNINTQLNWYQEKPGKAPELLIYGAFNLQSGAPSTFSGSGSGTDFTLTITSLQPEDFASYYCQQGFHAPYTFGRGTKVDIK
For B18, the EC50 in assay [3] came out at 28.2 nM. In addition, the binding result in assay [2] is “no binding”.

B19: NI-307.26A3 (antibody, V domains shown)
VH: EVQLVESGGVLVQPGGSLRLSCAASGFTFSSYAMTWVRQAPEKGLEWVSTIIGNGAYTYYADSVKGRFTISRDNSKNTLILQMNSLRADDAAVYYCAKGTELAPYYYYFALDVWGQGTTVTVSS
VL: EIVLTQSPGTLSLSPGERATLSCRASQSISSSHLAWYQQKPGQAPRLLIYGASSRATGIPDRFSGGGSGTDFTLTITRLEPEDFAVYYCQQYGSSPYTFGQGTKLEIK
B19 yielded an EC50 in assay [1] of 0.049 nM.

B20: NI-307.72F7 (antibody, V domains shown)
VH: EVQLVESGGGLVQPGGSLRLSCAASGFTFSSYEMNWVRQAPGKGLEWISYISSRGSTIHYADSVKGRFTISRDDAKNSLYLQMNSLRAEDTAIYYCARDRYDFWSGCIKGCYYGMDVWGQGSTVTVSS
VL: EIVLTQSPGTLSLSPGQRATLSCRASQSISSSYLAWYQQRRGQAPRLLIYGASSRATGIPDRFSGSGSGTDFTLTISRLEPEDFAVYYCQHYGTTLTFGQGTKVDIK
For B20, in assay [1], the EC50 amounted to 0.019 nM.

B21: NI-307.29B1 (antibody, V domains shown)
VH: EVQLVESGGGLVKPGGSLRLSCAASGITFQYYAMNWVRQAPGKGLEWVSSIGGRGDTTYYTDSVKGRFTISRDNSKSTLYLQMNSLRAEDTAVYYCAKEPFDSSGDHRGVFDYWGQGTLVTVSS
VL: QSVVTQPPSVSGAPGQRVTISCAGSRSNIGAGYDVNWYQQLPRTAPKLLIYDNTRRPSGVPARFSGSKSGSSASLTITGLQAEDEADYYCQSYDSKLNKVFGGGTKLTVL
For B21, in assay [1], the midpoint of the response, the EC50, lay at 0.076 nM.
